The data set deals with the molecule itself. As to the kind of experiment: crystal structure; co-crystallised with 2.5 mM Nb-GSH, hanging drop vapor diffusion, 0.1 M Tris-HCl pH 8.0, PEG 6000 20% (w/v), 0.2 M calcium chloride; data to 1.28 Å at 100 K; two molecules in the asymmetric unit.

B1: Mus musculus glutathione transferase P1-1 (enzyme, UniProt P19157 1-210, looked up)
chain: MPPYTIVYFPVRGRCEAMRMLLADQGQSWKEEVVTIDTWMQGLLKPTCLYGQLPKFEDGDLTLYQSNAILRHLGRSLGLYGKNQREAAQMDMVNDGVEDLRGKYVTLIYTNYENGKNDYVKALPGHLKPFETLLSQNQGGKAFIVGDQISFADYNLLDLLLIHQVLAPGCLDNFPLLSAYVARLSARPKIKAFLSSPEHVNRPINGNGKQ
notes: Glutathione S-transferase P1, Mus musculus, cloned from cDNA by PCR after GenBank BC061109.1; also called MmGSTP1-1; GSTP1-1 from Mus musculus
Consider B1, for which the binding result is listed as “binds”.

These data come from paper PMC10136361, “Inhibition Analysis and High-Resolution Crystal Structure of Mus musculus Glutathione Transferase P1-1” (Biomolecules, 2023).
